For orientation: EC50 (read off the curve) means the concentration needed to bring the measured effect to its halfway point. Low readings indicate an effect from little substance, high ones a need for much substance.

The values that follow come from patent US20240209109A1.

In assay [1] the target is human CD40 on cells (human) (UniProt P25942). Nature of the assay: FACS on Jurkat cells overexpressing human CD40, PE anti-human IgG, MFI.
The target is the same in assay [2]. Nature of the assay: FACS on human B cells (CD19+ gate), PE anti-human IgG Fc, MFI.
The target in assay [3] is human CD40-His protein (human) (UniProt P25942). Nature of the assay: ELISA on coated human CD40-His (1.0 ug/ml), anti-human IgG-HRP, OD450. Background: ELISA stands for enzyme-linked immunosorbent assay.
Assay [4] deals with human CD40 on cells (human) (UniProt P25942). The assay is described as follows: FACS on Jurkat cells overexpressing human CD40, PE anti-human IgG, MFI. The source holds these as a separate data set.

Sequence of selicrelumab (antibody) (VH): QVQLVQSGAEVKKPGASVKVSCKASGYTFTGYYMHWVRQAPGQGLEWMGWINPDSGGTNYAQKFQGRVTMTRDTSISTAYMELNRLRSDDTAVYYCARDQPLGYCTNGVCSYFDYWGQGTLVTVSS
Sequence of selicrelumab (antibody) (VL): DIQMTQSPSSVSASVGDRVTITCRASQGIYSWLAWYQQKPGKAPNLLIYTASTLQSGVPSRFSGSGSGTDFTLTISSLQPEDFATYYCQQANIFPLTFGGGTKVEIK
Sequence of human CD40 on cells (human) (P25942 21-277): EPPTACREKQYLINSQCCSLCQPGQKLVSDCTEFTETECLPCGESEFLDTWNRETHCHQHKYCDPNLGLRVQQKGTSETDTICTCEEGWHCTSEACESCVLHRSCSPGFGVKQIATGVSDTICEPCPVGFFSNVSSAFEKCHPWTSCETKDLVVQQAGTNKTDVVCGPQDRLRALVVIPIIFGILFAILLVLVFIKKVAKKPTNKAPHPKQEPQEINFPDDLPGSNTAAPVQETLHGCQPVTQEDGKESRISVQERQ
Sequence of human CD40-His protein (human) (P25942 21-193 limits assumed): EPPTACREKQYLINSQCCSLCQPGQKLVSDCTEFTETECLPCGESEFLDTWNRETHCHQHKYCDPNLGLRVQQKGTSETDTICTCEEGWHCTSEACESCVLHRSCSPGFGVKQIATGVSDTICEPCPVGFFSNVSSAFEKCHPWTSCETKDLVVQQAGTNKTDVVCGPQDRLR

Turning to selicrelumab (antibody), the EC50 (read off the curve) in assay [1] is 0.9 nM; in assay [2], 1 nM; in assay [3] it was 0.7 nM; in assay [4], 1 nM.
